According to patent US20240374747A1, “FUSION PROTEIN OF VHH ANTIBODY AND STREPTAVIDIN MUTANT” (The University of Tokyo, priority 2023, published 2024):
Where two headings read alike, the source gives them in different places.

How the values were obtained:
[1] = test system: Her2-positive cells (KPL-4); format: cell-based
Protocol: Her2-positive cells (KPL-4) were seeded on a 96-well plate to result in a cell count of 1×10^3 cells/well and a culture solution amount of 50 μL/well and were then cultured overnight. […] After the dilution series had been prepared, 50μ of the complex was each added to the cells, and the cells are cultured for 6 to 7 days. […] A reagent was added in accordance with the dosage and administration described in the instruction manual, and the resulting cells were then incubated at 37° C. in a CO2 incubator for 1.5 hours. After that, the absorbance at 450 nm was measured, and the mean value was then calculated, followed by background correction. Thereafter, the control was set at 100%, and the cell proliferation percentage to the control under individual conditions was calculated.

[2] = pH conditions of dialysis buffer for tetramer formation (non-reducing electrophoresis, densitometry); format: physicochemical; settings: dialyzed with refolding buffer B (pH 8.0) to remove guanidine hydrochloride
[3] = test system: Her2-positive cells (KPL-4)
Protocol: Her2-positive cells (KPL-4) were seeded on a 96-well plate to result in a cell count of 1×10^4 cells/well and a culture solution amount of 50 μL/well and were then cultured overnight. […] A reagent was added in accordance with the dosage and administration described in the instruction manual, and the resulting cells were then incubated at 37° C. in a CO2 incubator for 1.5 hours. […] Thereafter, the control was set at 100%, and the cell proliferation percentage to the control under individual conditions was calculated.

[4] = SPR analysis of interaction between Anti-HER2 VHH-Cupid and Psyche-Duocarmycin (Biacore T200); format: binding
Protocol: The surface plasmon resonance (SPR) analysis was performed using a Biacore T200 (Cytiva). […] The association and dissociation rate constants were evaluated using Biacore T200 Evaluation Software version 3 (Cytiva) by bivalent analyte model, and KD values were calculated.

[5] = pH conditions of dialysis buffer for tetramer formation (non-reducing electrophoresis, densitometry); format: physicochemical
Protocol: Then, the sample was put into dialysis tube and dialyzed with buffers (50 mM sodium phosphate, 400 mM arginine HCl, pH 4.0˜8.0). 100 μL of the sample after refolding was dialyzed at 25° C. for 1 hour using 30 mL of buffer and the Mini Dialysis Kit 1 kD (Cytiva). Thereafter, dialysis was performed at 4° C. for 18 hours with 30 mL of fresh buffer, followed by overnight dialysis at 4° C. with 30 mL of fresh buffer. The post-dialysis samples from each pH condition were analyzed by non-reducing electrophoresis and the result image was shown in FIG. 7. […] As shown in FIG. 7 and Table 2, the monomers were equal to or less than 8% and the tetramers were equal to or more than 92% in pH of 6.0 or less, whereas the percentage of monomers increased at a pH of 6.5 or more. At pH 8.0, the same as the pH of refolding buffer B, 81% of the monomers and 19% of the tetramers were present. […] The theoretical pIs of Anti-HER2 VHH and Cupid moieties were approximately 7.6 and 6.5, respectively. Therefore, it is preferable that a buffer for tetramer formation should be pH 6.0 or less to avoid aggregation induced by the Cupid moiety.

B1: Anti-HER2 VHH-Cupid: fusion protein of an anti-HER2 VHH single-domain antibody (SEQ ID NO: 2), Gly-Ser linker and Cupid mutant streptavidin; forms a tetramer (protein)
chain: MQVQLQESGGGSVQAGGSLKLTCAASGYIFNSCGMGWYRQSPGRERELVSRISGDGDTWHKESVKGRFTISQDNVKKTLYLQMNSLKPEDTAVYFCAVCYNLETYWGQGTQVTVSSGGGGSGGGGSGGGGSAEAGITGTWSDQLGDTFIVTAGADGALTGTYENAVGGAESRYVLTGRYDSAPATDGSGTALGWTVAWKNNSKNAHSATTWSGQYVGGADAKINTQWLLTSGTTNANAWKSTLVGHDTFTKVKPSAASHHHHHH
modifications: tetramer
notes: forms a tetramer
cytotoxic activity compared with FL2 as vector [1]: stronger cytotoxic activity than FL2 | oligomeric state after dialysis with refolding buffer B [2]: almost all of the Anti-HER2 VHH-Cupid were monomeric | cytotoxic activity compared with FL2 as vector [3]: stronger cytotoxic activity than FL2 | association rate constant (Ka1) ([4]; Anti-HER2 VHH-Cupid captured via anti-histidine antibody, Psyche-Duocarmycin analyte 10 nM to 0.3125 nM, bivalent analyte model): 1.336×10^4 l/Ms | binding activity to Psyche-Duocarmycin ([4]; SPR): had binding activity to Psyche-Duocarmycin | Monomer band (%) ([5]; dialysis buffer pH 4.0): 4% | Tetramer band (%) ([5]; dialysis buffer pH 4.0): 96% | Monomer band (%) ([5]; dialysis buffer pH 5.0): 6% | Tetramer band (%) ([5]; dialysis buffer pH 5.0): 94% | Monomer band (%) ([5]; dialysis buffer pH 5.5): 8% | Tetramer band (%) ([5]; dialysis buffer pH 5.5): 92% | Monomer band (%) ([5]; dialysis buffer pH 6.0): 8% | Tetramer band (%) ([5]; dialysis buffer pH 6.0): 92% | Monomer band (%) ([5]; dialysis buffer pH 6.5): 13% | Tetramer band (%) ([5]; dialysis buffer pH 6.5): 87% | Monomer band (%) ([5]; dialysis buffer pH 7.0): 35% | Tetramer band (%) ([5]; dialysis buffer pH 7.0): 65% | Monomer band (%) ([5]; dialysis buffer pH 7.5): 77% | Tetramer band (%) ([5]; dialysis buffer pH 7.5): 23% | Monomer band (%) ([5]; dialysis buffer pH 8.0): 81% | Tetramer band (%) ([5]; dialysis buffer pH 8.0): 19% | tetramer formation of the refolded sample ([5]; dialysis buffers pH 4.0-8.0, FIG. 7): formed tetramers in pH-dependent manner | percentage of monomers ([5]; pH of 6.0 or less): ≤ 8% | percentage of tetramers ([5]; pH of 6.0 or less): ≥ 92%
